Experimental data from the Immune Epitope Database (IEDB).

Tests used:
[1] = target: HLA-A*11:01; test: IEDB peptide-MHC binding, purified MHC/direct/fluorescence; filed as Kd, often an IC50 or EC50 that approximates it; ≥ and ≤ were set here for values at or beyond the usual limits of such assays
[2] = target: HLA-A*26:01; test: as above
[3] = target: HLA-B*27:05; test: as above; conditions: source organism: Pseudomonas aeruginosa
[4] = target: HLA-A*02:01; test: as above
[5] = target: HLA-B*07:02; test: as above
[6] = target: HLA-A*24:03; test: as above; conditions: source organism: Pseudomonas aeruginosa
[7] = target: HLA-B*15:01; test: as above
[8] = target: HLA-B*58:01; test: as above; conditions: source organism: Pseudomonas aeruginosa
[9] = target: HLA-A*01:01; test: as above
[10] = target: HLA-B*35:01; test: as above
[11] = target: HLA-A*69:01; test: as above
[12] = target: HLA-B*40:01; test: as above; conditions: source organism: Pseudomonas aeruginosa
[13] = target: HLA-B*08:01; test: as above
[14] = target: HLA-A*31:01; test: as above
[15] = target: HLA-A*03:01; test: as above
[16] = target: HLA-A*02:02; test: IEDB peptide-MHC binding, purified MHC/competitive/radioactivity; filed as Kd, often an IC50 or EC50 that approximates it; ≥ and ≤ were set here for values at or beyond the usual limits of such assays; conditions: source organism: Vaccinia virus WR
[17] = target: HLA-A*02:06; test: as above; conditions: source organism: Vaccinia virus WR
[18] = target: HLA-B*15:03; test: as above; conditions: source organism: Vaccinia virus WR
[19] = target: HLA-A*02:03; test: as above; conditions: source organism: Vaccinia virus WR
[20] = target: HLA-A*30:01; test: as above; conditions: source organism: Vaccinia virus WR
[21] = target: HLA-A*32:01; test: as above; conditions: source organism: Vaccinia virus WR
[22] = target: HLA-B*15:01; test: as above; conditions: source organism: Vaccinia virus WR
[23] = target: HLA-B*08:01; test: as above; conditions: source organism: Vaccinia virus WR
[24] = target: HLA-A*02:12; test: IEDB peptide-MHC binding, purified MHC/competitive/fluorescence; filed as Kd, often an IC50 or EC50 that approximates it; ≥ and ≤ were set here for values at or beyond the usual limits of such assays; conditions: source organism: Cowpox virus
[25] = target: HLA-A*02:01; test: as above; conditions: source organism: Cowpox virus
[26] = target: HLA-A*11:01; test: IEDB peptide-MHC binding, purified MHC/competitive/fluorescence; ≥ and ≤ were set here for values at or beyond the usual limits of such assays
[27] = target: HLA-B*44:02; test: IEDB peptide-MHC binding, purified MHC/direct/fluorescence; filed as Kd, often an IC50 or EC50 that approximates it; ≥ and ≤ were set here for values at or beyond the usual limits of such assays; conditions: source organism: Giardia lamblia ATCC 50803
[28] = target: HLA-A*03:01; test: IEDB peptide-MHC binding, purified MHC/competitive/fluorescence; ≥ and ≤ were set here for values at or beyond the usual limits of such assays; conditions: source organism: Zaire ebolavirus
[29] = target: HLA-A*02:01; test: IEDB peptide-MHC binding, purified MHC/competitive/radioactivity; filed as Kd, often an IC50 or EC50 that approximates it; ≥ and ≤ were set here for values at or beyond the usual limits of such assays; conditions: source organism: Dengue virus 1 Singapore/S275/1990
[30] = target: HLA-A*02:17; test: as above; conditions: source organism: Dengue virus 1 Singapore/S275/1990
[31] = source organism: Pseudomonas aeruginosa
[32] = source organism: Giardia lamblia ATCC 50803

Sequence: LPQTRWQAV
- Kd [1, 31]: ≥ 20 µM
- Kd [2, 31]: ≥ 20 µM
- Kd [3]: ≥ 20 µM
- Kd [4, 31]: ≥ 20 µM
- Kd [5, 31]: 0.0283 µM
- Kd [6]: ≥ 20 µM
- Kd [7, 31]: ≥ 20 µM
- Kd [8]: ≥ 20 µM
- Kd [9, 31]: ≥ 20 µM
- Kd [10, 31]: 0.088 µM
- Kd [11, 31]: ≥ 20 µM
- Kd [12]: ≥ 20 µM
- Kd [13, 31]: 0.189 µM
- Kd [14, 31]: ≥ 20 µM
- Kd [15, 31]: ≥ 20 µM

Sequence: LQISRVNDL
- Kd [16]: 0.0898 µM
- Kd [17]: 0.229 µM
- Kd [18]: 0.0344 µM
- Kd [19]: 0.0115 µM

Sequence: LTIACRVSL
- Kd [20]: 0.475 µM
- Kd [21]: 0.0958 µM
- Kd [18]: 0.599 µM
- Kd [22]: 0.0758 µM
- Kd [23]: 0.731 µM

Sequence: NMNNDSYYF
- Kd [24]: 0.0765 µM
- Kd [25]: 0.0113 µM

Sequence: NQVCIDILR
- IC50 ([26]; source organism: Vaccinia virus): ≥ 205 µM

Sequence: QHTRRVSVL
- Kd [1, 32]: ≥ 20 µM
- Kd [2, 32]: 5.18 µM
- Kd [4, 32]: 10.1 µM
- Kd [5, 32]: ≥ 20 µM
- Kd [7, 32]: ≥ 20 µM
- Kd [9, 32]: ≥ 20 µM
- Kd [10, 32]: 1.3 µM
- Kd [11, 32]: ≥ 20 µM
- Kd [13, 32]: 0.534 µM
- Kd [27]: ≥ 20 µM
- Kd [14, 32]: ≥ 10 µM
- Kd [15, 32]: ≥ 20 µM

Sequence: RMFGSKPTF
- Kd [20]: 6.25 µM
- Kd [21]: 9.8 µM
- Kd [18]: 0.000206 µM
- Kd [22]: 7.51 µM
- Kd [23]: 7.87 µM

Sequence: SQTIELIAF
- Kd [18]: 0.000206 µM

Sequence: VKNEVNSFK
- IC50 ([26]; source organism: Zaire ebolavirus): 39.1 µM
- IC50 [28]: 47.1 µM

Sequence: VLLLTIGLSL
- Kd [29]: 0.00524 µM
- Kd [30]: 3.91 µM

Sequence: VMSQEDNHF
- Kd [18]: 0.102 µM
- Kd [22]: 0.192 µM

Sequence: VVAVGGLAI
- Kd [1, 31]: ≥ 20 µM
- Kd [2, 31]: ≥ 20 µM
- Kd [3]: ≥ 20 µM
- Kd [4, 31]: ≥ 20 µM
- Kd [5, 31]: 0.251 µM
- Kd [6]: ≥ 20 µM
- Kd [7, 31]: 0.144 µM
- Kd [8]: ≥ 20 µM
- Kd [9, 31]: ≥ 20 µM
- Kd [10, 31]: 6.12 µM
- Kd [12]: ≥ 20 µM
- Kd [13, 31]: ≥ 20 µM
- Kd [14, 31]: ≥ 20 µM
- Kd [15, 31]: ≥ 20 µM

Sequence: YMSSEPIIF
- Kd [18]: 0.000304 µM
